Laboratory results published in paper PMC6802964.

Experiments:
[1] = target: T1, CyPet–Myo1^IQ12–YPet FRET reporter protein (S. pombe); assay: other fluorescence titration; change of the CyPet-YPet FRET signal of the IQ-FRET protein (1 µM by the methods, 0.5 µM by the legend) with varying concentrations of Cam1 or Cam2; 140 mM KCl, 20 mM MOPS pH 7.0, with or without 2 mM MgCl2, 2 mM EGTA (absence of calcium)
T1 sequence (Q9Y7Z8 whole entry, looked up): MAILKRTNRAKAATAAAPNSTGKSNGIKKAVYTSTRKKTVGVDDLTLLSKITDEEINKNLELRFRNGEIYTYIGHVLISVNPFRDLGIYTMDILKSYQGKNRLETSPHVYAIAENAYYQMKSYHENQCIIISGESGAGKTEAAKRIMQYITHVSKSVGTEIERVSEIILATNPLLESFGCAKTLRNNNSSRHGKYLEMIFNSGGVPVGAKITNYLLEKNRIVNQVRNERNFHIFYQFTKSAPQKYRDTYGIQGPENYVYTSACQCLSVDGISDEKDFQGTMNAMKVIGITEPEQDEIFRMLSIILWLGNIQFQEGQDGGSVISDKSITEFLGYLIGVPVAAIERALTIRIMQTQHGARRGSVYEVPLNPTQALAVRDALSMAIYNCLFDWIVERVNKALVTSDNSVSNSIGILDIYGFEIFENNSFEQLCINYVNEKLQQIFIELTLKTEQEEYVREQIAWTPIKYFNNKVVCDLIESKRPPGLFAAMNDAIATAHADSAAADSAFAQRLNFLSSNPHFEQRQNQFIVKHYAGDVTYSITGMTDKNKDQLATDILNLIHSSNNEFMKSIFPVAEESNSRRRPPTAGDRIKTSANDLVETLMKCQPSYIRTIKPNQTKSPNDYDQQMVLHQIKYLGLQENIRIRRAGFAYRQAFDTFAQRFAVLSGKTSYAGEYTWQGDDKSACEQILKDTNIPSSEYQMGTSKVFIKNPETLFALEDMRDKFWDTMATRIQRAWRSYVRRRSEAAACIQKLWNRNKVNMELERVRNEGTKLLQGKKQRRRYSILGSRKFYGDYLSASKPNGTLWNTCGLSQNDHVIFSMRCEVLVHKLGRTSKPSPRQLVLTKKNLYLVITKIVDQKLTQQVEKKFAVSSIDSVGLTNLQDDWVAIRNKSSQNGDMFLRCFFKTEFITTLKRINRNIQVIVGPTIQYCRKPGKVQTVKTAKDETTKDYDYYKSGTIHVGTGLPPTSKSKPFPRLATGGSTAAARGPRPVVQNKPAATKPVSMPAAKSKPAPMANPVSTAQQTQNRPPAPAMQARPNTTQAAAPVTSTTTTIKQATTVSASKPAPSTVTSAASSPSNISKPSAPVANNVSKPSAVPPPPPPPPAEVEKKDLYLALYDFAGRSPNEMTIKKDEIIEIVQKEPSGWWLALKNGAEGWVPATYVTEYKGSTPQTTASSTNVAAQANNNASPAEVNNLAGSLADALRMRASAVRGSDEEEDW

[2] = target: T2, CyPet–Myo1^IQ1–YPet FRET reporter protein (S. pombe); assay: as above
T2 sequence (Q9Y7Z8 whole entry, looked up): T1 sequence (Q9Y7Z8 whole entry, looked up)

KD of the first binding event [1]: < 100 nM | KD of the second binding event [1]: 680 nM | Kd [2]: < 100 nM
Substance: Cam1 (wild type, amino-terminally acetylated fission yeast calmodulin) (from UniProt P05933 1-150) (natural protein)
